Biological target: T1, rDmeR (Vibrio parahaemolyticus RIMD 2210633) (UniProt Q87GM9)
T1 sequence: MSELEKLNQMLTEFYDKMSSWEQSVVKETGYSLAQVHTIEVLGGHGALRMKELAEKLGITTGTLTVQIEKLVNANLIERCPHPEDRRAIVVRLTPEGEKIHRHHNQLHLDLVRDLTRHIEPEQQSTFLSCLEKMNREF
Test: EMSA
Details: 10 mM Tris pH 7.4, 150 mM NaCl, 0.1 mM DTT, 0.1 mM EDTA or 0.5 mM CoSO4, 200 ng poly(dI:dC), 20 ng DNA, 0-1.0 ug rDmeR in 20 uL, 25 C 30 min, 6% native PAGE

Sequence | binding
CAAGGGCAACATCTTACAGCCATGACCGGTAAACAATGCATTTACCTAATTGACGACTTTGCGTCGGAATTAGATAGCCAACGTCGCAAGCGTCTTGCAGATTGCTTGAAAGAGACAGGCGCACAAGTATTTGTAAGCTCTATCACTGAAAACCAAATCGCCGACATGCTCGACGATAATGGCAAATTGTTTCATGTGGAACATGGCAGGATAGA (double strand) [PgyrB promoter probe] | no binding
TAAGCGGCTGATTCCCAAACAAGGCCGCATATGTTCATGCGGGGAGGCATCAGATTGGCCAATCTTGAGTGCAGTGATGAACGCCTTTCTTAGTTTTCTATGTTGACTTTGTTTGATGGTCAAACTAAATTTAAATCAAATATTTTGATTATCAAACAAAATGAGCAATAACGATATGATTTATCTATGGCAATAGCACAACACACGC (double strand) [PdmeRF promoter probe (WT)] | binds
